Earlier results on one substance are cited in article PMC8069034.

For orientation: Kd means a measure of binding affinity in units of concentration.

The data set concerns the target IL13 (Homo sapiens) (UniProt P35225). As to the kind of experiment: SPR.

Chain of IL13 (Homo sapiens) (P35225 25-146): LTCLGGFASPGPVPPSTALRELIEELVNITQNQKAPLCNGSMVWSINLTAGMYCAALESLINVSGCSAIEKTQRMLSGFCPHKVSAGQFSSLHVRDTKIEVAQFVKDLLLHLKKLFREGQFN

Regarding tralokinumab, the Kd is 0.058 nM.
